Results reported in publication PMC2888420 (The Journal of Biological Chemistry, 2010).
Square brackets hold non-standard residues; d marks the D form. Ends that are not written are not given here. pS = N[C@@H](COP(=O)(O)O)C(=O)O

B1: fluorescently labeled phosphopeptide VNKpSYFND-fluorescein (peptide)
peptide: VNK[pS]YFND-fluorescein

Target: BRCA1 BRCT domains, wild type (residues 1646-1863) (UniProt P38398 1646-1863)
Assay: fluorescence polarisation

Kd [nM] | Binder
112 ± 6 | B1

Target: B1
Assay: fluorescence polarisation

fold reduction in affinity against wild type [fold] | fold increase in affinity against wild type [fold] | Binder
≤ 1.5 | – | BRCA1 BRCT A1843P (domain or fragment, UniProt P38398 1646-1863, looked up) VNKRMSMVVSGLTPEEFMLVYKFARKHHITLTNLITEETTHVVMKTDAEFVCERTLKYFLGIAGGKWVVSYFWVTQSIKERKMLNEHDFEVRGDVVNGRNHQGPKRARESQDRKIFRGLEICCYGPFTNMPTDQLEWMVQLCGASVVKELSSFTLGTGVHPIVVVQPDAWTEDNGFHAIGQMCEAPVVTREWVLDSVPLYQCQELDTYLIPQIPHSHY
~100 | – | BRCA1 BRCT R1699Q (domain or fragment, UniProt P38398 1646-1863, looked up) VNKRMSMVVSGLTPEEFMLVYKFARKHHITLTNLITEETTHVVMKTDAEFVCEQTLKYFLGIAGGKWVVSYFWVTQSIKERKMLNEHDFEVRGDVVNGRNHQGPKRARESQDRKIFRGLEICCYGPFTNMPTDQLEWMVQLCGASVVKELSSFTLGTGVHPIVVVQPDAWTEDNGFHAIGQMCEAPVVTREWVLDSVALYQCQELDTYLIPQIPHSHY
~100 | – | BRCA1 BRCT R1699L (domain or fragment, UniProt P38398 1646-1863, looked up) VNKRMSMVVSGLTPEEFMLVYKFARKHHITLTNLITEETTHVVMKTDAEFVCELTLKYFLGIAGGKWVVSYFWVTQSIKERKMLNEHDFEVRGDVVNGRNHQGPKRARESQDRKIFRGLEICCYGPFTNMPTDQLEWMVQLCGASVVKELSSFTLGTGVHPIVVVQPDAWTEDNGFHAIGQMCEAPVVTREWVLDSVALYQCQELDTYLIPQIPHSHY
≤ 1.5 | – | BRCA1 BRCT M1783T (domain or fragment, UniProt P38398 1646-1863, looked up) VNKRMSMVVSGLTPEEFMLVYKFARKHHITLTNLITEETTHVVMKTDAEFVCERTLKYFLGIAGGKWVVSYFWVTQSIKERKMLNEHDFEVRGDVVNGRNHQGPKRARESQDRKIFRGLEICCYGPFTNMPTDQLEWTVQLCGASVVKELSSFTLGTGVHPIVVVQPDAWTEDNGFHAIGQMCEAPVVTREWVLDSVALYQCQELDTYLIPQIPHSHY
~1.4 | – | BRCA1 BRCT M1775R (domain or fragment, UniProt P38398 1646-1863, looked up) VNKRMSMVVSGLTPEEFMLVYKFARKHHITLTNLITEETTHVVMKTDAEFVCERTLKYFLGIAGGKWVVSYFWVTQSIKERKMLNEHDFEVRGDVVNGRNHQGPKRARESQDRKIFRGLEICCYGPFTNRPTDQLEWMVQLCGASVVKELSSFTLGTGVHPIVVVQPDAWTEDNGFHAIGQMCEAPVVTREWVLDSVALYQCQELDTYLIPQIPHSHY
~1.4 | – | BRCA1 BRCT L1664P (domain or fragment, UniProt P38398 1646-1863, looked up) VNKRMSMVVSGLTPEEFMPVYKFARKHHITLTNLITEETTHVVMKTDAEFVCERTLKYFLGIAGGKWVVSYFWVTQSIKERKMLNEHDFEVRGDVVNGRNHQGPKRARESQDRKIFRGLEICCYGPFTNMPTDQLEWMVQLCGASVVKELSSFTLGTGVHPIVVVQPDAWTEDNGFHAIGQMCEAPVVTREWVLDSVALYQCQELDTYLIPQIPHSHY
~1.4 | – | BRCA1 BRCT R1751Q (domain or fragment, UniProt P38398 1646-1863, looked up) VNKRMSMVVSGLTPEEFMLVYKFARKHHITLTNLITEETTHVVMKTDAEFVCERTLKYFLGIAGGKWVVSYFWVTQSIKERKMLNEHDFEVRGDVVNGRNHQGPKQARESQDRKIFRGLEICCYGPFTNMPTDQLEWMVQLCGASVVKELSSFTLGTGVHPIVVVQPDAWTEDNGFHAIGQMCEAPVVTREWVLDSVALYQCQELDTYLIPQIPHSHY
≤ 1.5 | – | BRCA1 BRCT G1788D (domain or fragment, UniProt P38398 1646-1863, looked up) VNKRMSMVVSGLTPEEFMLVYKFARKHHITLTNLITEETTHVVMKTDAEFVCERTLKYFLGIAGGKWVVSYFWVTQSIKERKMLNEHDFEVRGDVVNGRNHQGPKRARESQDRKIFRGLEICCYGPFTNMPTDQLEWMVQLCDASVVKELSSFTLGTGVHPIVVVQPDAWTEDNGFHAIGQMCEAPVVTREWVLDSVALYQCQELDTYLIPQIPHSHY
~1.4 | – | BRCA1 BRCT V1665M (domain or fragment, UniProt P38398 1646-1863, looked up) VNKRMSMVVSGLTPEEFMLMYKFARKHHITLTNLITEETTHVVMKTDAEFVCERTLKYFLGIAGGKWVVSYFWVTQSIKERKMLNEHDFEVRGDVVNGRNHQGPKRARESQDRKIFRGLEICCYGPFTNMPTDQLEWMVQLCGASVVKELSSFTLGTGVHPIVVVQPDAWTEDNGFHAIGQMCEAPVVTREWVLDSVALYQCQELDTYLIPQIPHSHY
~1.4 | – | BRCA1 BRCT G1788V (domain or fragment, UniProt P38398 1646-1863, looked up) VNKRMSMVVSGLTPEEFMLVYKFARKHHITLTNLITEETTHVVMKTDAEFVCERTLKYFLGIAGGKWVVSYFWVTQSIKERKMLNEHDFEVRGDVVNGRNHQGPKRARESQDRKIFRGLEICCYGPFTNMPTDQLEWMVQLCVASVVKELSSFTLGTGVHPIVVVQPDAWTEDNGFHAIGQMCEAPVVTREWVLDSVALYQCQELDTYLIPQIPHSHY
~1.4 | – | BRCA1 BRCT T1773S (domain or fragment, UniProt P38398 1646-1863, looked up) VNKRMSMVVSGLTPEEFMLVYKFARKHHITLTNLITEETTHVVMKTDAEFVCERTLKYFLGIAGGKWVVSYFWVTQSIKERKMLNEHDFEVRGDVVNGRNHQGPKRARESQDRKIFRGLEICCYGPFSNMPTDQLEWMVQLCGASVVKELSSFTLGTGVHPIVVVQPDAWTEDNGFHAIGQMCEAPVVTREWVLDSVALYQCQELDTYLIPQIPHSHY
~5 | – | BRCA1 BRCT V1736A (domain or fragment, UniProt P38398 1646-1863, looked up) VNKRMSMVVSGLTPEEFMLVYKFARKHHITLTNLITEETTHVVMKTDAEFVCERTLKYFLGIAGGKWVVSYFWVTQSIKERKMLNEHDFEARGDVVNGRNHQGPKRARESQDRKIFRGLEICCYGPFTNMPTDQLEWMVQLCGASVVKELSSFTLGTGVHPIVVVQPDAWTEDNGFHAIGQMCEAPVVTREWVLDSVALYQCQELDTYLIPQIPHSHY
~1.4 | – | BRCA1 BRCT G1706A (domain or fragment, UniProt P38398 1646-1863, looked up) VNKRMSMVVSGLTPEEFMLVYKFARKHHITLTNLITEETTHVVMKTDAEFVCERTLKYFLAIAGGKWVVSYFWVTQSIKERKMLNEHDFEVRGDVVNGRNHQGPKRARESQDRKIFRGLEICCYGPFTNMPTDQLEWMVQLCGASVVKELSSFTLGTGVHPIVVVQPDAWTEDNGFHAIGQMCEAPVVTREWVLDSVALYQCQELDTYLIPQIPHSHY
≤ 1.5 | – | BRCA1 BRCT V1808A (domain or fragment, UniProt P38398 1646-1863, looked up) VNKRMSMVVSGLTPEEFMLVYKFARKHHITLTNLITEETTHVVMKTDAEFVCERTLKYFLGIAGGKWVVSYFWVTQSIKERKMLNEHDFEVRGDVVNGRNHQGPKRARESQDRKIFRGLEICCYGPFTNMPTDQLEWMVQLCGASVVKELSSFTLGTGVHPIAVVQPDAWTEDNGFHAIGQMCEAPVVTREWVLDSVALYQCQELDTYLIPQIPHSHY
– | ~1.5 | BRCA1 BRCT D1778N (domain or fragment, UniProt P38398 1646-1863, looked up) VNKRMSMVVSGLTPEEFMLVYKFARKHHITLTNLITEETTHVVMKTDAEFVCERTLKYFLGIAGGKWVVSYFWVTQSIKERKMLNEHDFEVRGDVVNGRNHQGPKRARESQDRKIFRGLEICCYGPFTNMPTNQLEWMVQLCGASVVKELSSFTLGTGVHPIVVVQPDAWTEDNGFHAIGQMCEAPVVTREWVLDSVALYQCQELDTYLIPQIPHSHY
~1.4 | – | BRCA1 BRCT M1652I (domain or fragment, UniProt P38398 1646-1863, looked up) VNKRMSIVVSGLTPEEFMLVYKFARKHHITLTNLITEETTHVVMKTDAEFVCERTLKYFLGIAGGKWVVSYFWVTQSIKERKMLNEHDFEVRGDVVNGRNHQGPKRARESQDRKIFRGLEICCYGPFTNMPTDQLEWMVQLCGASVVKELSSFTLGTGVHPIVVVQPDAWTEDNGFHAIGQMCEAPVVTREWVLDSVALYQCQELDTYLIPQIPHSHY
~1.4 | – | BRCA1 BRCT D1692N (domain or fragment, UniProt P38398 1646-1863, looked up) VNKRMSMVVSGLTPEEFMLVYKFARKHHITLTNLITEETTHVVMKTNAEFVCERTLKYFLGIAGGKWVVSYFWVTQSIKERKMLNEHDFEVRGDVVNGRNHQGPKRARESQDRKIFRGLEICCYGPFTNMPTDQLEWMVQLCGASVVKELSSFTLGTGVHPIVVVQPDAWTEDNGFHAIGQMCEAPVVTREWVLDSVALYQCQELDTYLIPQIPHSHY
~300 | – | BRCA1 BRCT R1699W (domain or fragment, UniProt P38398 1646-1863, looked up) VNKRMSMVVSGLTPEEFMLVYKFARKHHITLTNLITEETTHVVMKTDAEFVCEWTLKYFLGIAGGKWVVSYFWVTQSIKERKMLNEHDFEVRGDVVNGRNHQGPKRARESQDRKIFRGLEICCYGPFTNMPTDQLEWMVQLCGASVVKELSSFTLGTGVHPIVVVQPDAWTEDNGFHAIGQMCEAPVVTREWVLDSVALYQCQELDTYLIPQIPHSHY
